Reference: publication PMC6315623

B1: unnamed (parent)
chain 1: PHLSRQPEQPEQRALGPVSMPNLVPEVIDLTCHEAGFPPSDDEDEEG
chain 2: MPQPIEKVSVSTQTKKLSASSPRMLHRSTQTTNDGVCQSMCHDKYTKIFNDFKDRMKSDHKRETERVVREALEKLRSEMEEEKRQAVNKAVANMQGEMDRKCKQVKEKCKEEFVEEIKKLATQHKQLISQTKKKQWCYNCEEEAMYHCCWNTSYCSIKCQQEHWHAEHKRTCRRKR

Variants of: B1
Test: yeast two-hybrid (β-galactosidase activity)
Conditions: with partner chain of the complex shown; n = 3; parent: 100; read off a plot
Variant chain 1 P25A has a percent of parent of 180%.
With chain 1 S19A the percent of parent was 89%.
chain 1 V27A showed a percent of parent of 130%.
chain 1 M20A gave a percent of parent of 160%.
Variant chain 1 I28A has a percent of parent of 140%.
With chain 1 V24A the percent of parent was 100%.
In the case of chain 1 E26A, the percent of parent is reported as 150%.
Variant chain 1 N22A has a percent of parent of 100%.
